Laboratory results: patent publication US20190359697A1 (Scripps Research, published 2019)
Where a chain is given by its changes, count along the chain named. In names and notes the source's numbering stands.

T1: CD19 (UniProt P15391 20-556, limits assumed)
T1 sequence (looked up): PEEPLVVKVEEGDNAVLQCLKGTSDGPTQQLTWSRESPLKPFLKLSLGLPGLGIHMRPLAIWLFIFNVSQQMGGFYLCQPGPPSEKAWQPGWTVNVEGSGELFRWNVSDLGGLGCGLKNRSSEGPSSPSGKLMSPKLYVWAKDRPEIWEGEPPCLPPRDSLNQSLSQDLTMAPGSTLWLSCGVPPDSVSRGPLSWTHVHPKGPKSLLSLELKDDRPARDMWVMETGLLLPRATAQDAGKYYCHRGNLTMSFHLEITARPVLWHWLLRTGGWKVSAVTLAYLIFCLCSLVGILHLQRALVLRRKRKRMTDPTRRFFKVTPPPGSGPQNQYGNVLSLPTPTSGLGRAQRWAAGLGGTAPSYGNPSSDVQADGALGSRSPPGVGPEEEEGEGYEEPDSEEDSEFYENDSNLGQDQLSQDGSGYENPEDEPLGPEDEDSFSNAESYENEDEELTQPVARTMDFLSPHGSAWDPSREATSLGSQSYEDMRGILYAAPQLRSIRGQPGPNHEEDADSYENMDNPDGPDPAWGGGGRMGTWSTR

T2: CD19 (UniProt P15391 20-556)
T2 chain: T1 sequence (looked up)

B1: hFMCL2b/H4c(Q1E-V20L)-WT (antibody, V domains shown)
VH: EVQLQESGPGLVKPSETLSLTCTVSGVSLPDYGVSWIRQPPGKGLEWLGVIWGSETTYYNSALKSRLTISKDNSKNQVSLKMSSLTAADTAVYYCAKHYYYGGSYAMDYWGQGTLVTVSS
VL: DIQMTQSPSSLSASVGDRVTITCRASQDISKYLNWYQQKPGKAVKLLIYHTSRLHSGVPSRFSGSGSGTDYTLTISSLQPEDFATYFCQQGATLPYTFGQGTKLEIK
B2: hFMCL2b/H4c-x-(Q1E)-WT (antibody, V domains shown)
VH: B1 VH with L48I, L67V, V78F, M82L, L85V
VL: B1 VL
B3: hFMCL2b(A92N)-LCNT/hFMCH4c(Q1E) (Fab, V domains shown)
VH: B1 VH with L20V
VL: B1 VL with A92N
B4: hFMCL2b(V44L)/H4c(Q1E)-WT (antibody, V domains shown)
VH: B1 VH with L20V
VL: B1 VL with V44L
B5: hFMCL2/H3 WT (antibody, V domains shown)
VH: B1 VH with E1Q, L20V, S61P, A62S, K97R
VL: B1 VL with V44P, F87Y
B6: hFMCL2/H4a WT (antibody, V domains shown)
VH: B1 VH with E1Q, L20V, S61P, A62S, N73T
VL: B1 VL with V44P, F87Y
B7: hFMCL2b/H4b(Q1E-V20L)-WT (antibody, V domains shown)
VH: B1 VH with S61P, A62S
VL: B1 VL
B8: hFMCL2-LCNT/hFMCH4b (Fab, V domains shown)
VH: B1 VH with E1Q, L20V, S61P, A62S
VL: B1 VL with V44P, F87Y
B9: hFMCL2-LCNT/hFMCH4c (Fab, V domains shown)
VH: B1 VH with E1Q, L20V
VL: B1 VL with V44P, F87Y
B10: hFMCL2b/H4b-x-(Q1E)-WT (antibody, V domains shown)
VH: B1 VH with L48I, S61P, A62S, L67V, V78F, M82L, L85V
VL: B1 VL
B11: hFMCL2/H2 WT (antibody, V domains shown)
VH: B1 VH with E1Q, L20V, S61P, A62S, N73T, K97R
VL: B1 VL with V44P, F87Y
B12: hFMCL2b/H4c(Q1E)-WT (antibody, V domains shown)
VH: B1 VH with L20V
VL: B1 VL
B13: hFMCL2b/H4b(Q1E)-WT (antibody, V domains shown)
VH: B1 VH with L20V, S61P, A62S
VL: B1 VL

molecular target: T1, CD19; assay: cell-based or functional assay

Binder	EC50 of cytotoxicity (LDH), sCAR-T cells + switch vs CD19+ RS4;11, Average of the repeat assays [nM]	EC50 of cytotoxicity (LDH), sCAR-T cells + switch vs CD19+ RS4;11, assay DTR-5-15 (PBMC) [nM]	EC50 of cytotoxicity (LDH), sCAR-T cells + switch vs CD19+ RS4;11, assay DTR-5-16 (CD4:CD8) [nM]	EC50 of cytotoxicity (LDH), sCAR-T cells + switch vs CD19+ RS4;11, assay DTR-5-50 (PBMC) [nM]	EC50 of cytotoxicity (LDH), sCAR-T cells + switch vs CD19+ RS4;11, assay DTR-5-51 (CD4:CD8) [nM]
B1	0.013	0.00752	0.0153	0.0144	0.0148
B2	0.0442	0.0283	0.0818	0.0151	0.0515
B3	0.00992	0.00873	0.00919	0.00655	0.0152
B4	0.00745	0.00204	0.00845	0.00701	0.0123
B5	0.0876	0.139	0.0771	0.0614	0.0726
B6	0.0407	0.0432	0.0507	0.0283	0.0407
B7	0.00996	0.00963	0.0131	0.00748	0.0096
B8	0.0156	0.0214	0.00743	0.0187	0.0146
B9	0.018	0.0166	0.016	0.0092	0.0301
B10	0.0538	0.0296	0.0776	0.0438	0.0639
B11	0.0843	0.141	0.079	0.0386	0.0785
B12	0.00951	0.0071	0.00941	0.00825	0.0133
B13	0.0113	0.00715	0.0105	0.00697	0.0207

Molecular target: T2, CD19
Assay: flow

Binder	EC50 [nM]
B1	1.18
B2	16.9
B4	1.72
B7	0.875
B10	1.87
B12	0.809
B13	0.987

Molecular target: T2, CD19
Assay: flow cytometry cell binding; FIG. 5; WT switch (no PNE)

Binder	EC50 [nM]
B5	23.9
B6	6.65
B11	45.6
